According to patent US12134789B2, “Construction method and applications of glycosyltransferase BS-YjiC mutant” (Northwest university, priority 2023, dated 2024):
Substitutions are numbered along the chain they refer to. Numbers in names are those of the source. Where “and” joins values, the source holds several entries; their conditions need not be identical. Equal values may be shown once.

B1: WT: wild-type glycosyltransferase BS-YjiC from Bacillus subtilis 168, amino acid sequence SEQ ID NO: 1 (protein)
chain: MKKYHISMINIPAYGHVNPTLALVEKLCEKGHRVTYATTEEFAPAVQQAGGEALIYHTSLNIDPKQIREMMEKNDAPLSLLKESLSILPQLEELYKDDQPDLIIYDFVALAGKLFAEKLNVPVIKLCSSYAQNESFQLGNEDMLKKIREAEAEFKAYLEQEKLPAVSFEQLAVPEALNIVFMPKSFQIQHETFDDRFCFVGPSLGERKEKESLLIDKDDRPLMLISLGTAFNAWPEFYKMCIKAFRDSSWQVIMSVGKTIDPESLEDIPANFTIRQSVPQLEVLEKADLFISHGGMNSTMEAMNAGVPLVVIPQMYEQELTANRVDELGLGVYLPKEEVTVSSLQEAVQAVSSDQELLSRVKNMQKDVKEAGGAERAAAEIEAFMKKSAVPQ
B2: K125I/N178I: BS-YjiC (SEQ ID NO: 1) double mutant: lysine into isoleucine (K125I) and asparagine 178 into isoleucine (protein)
chain: B1 chain with K125I, N178I
B3: N178I: BS-YjiC (SEQ ID NO: 1) mutant with asparagine at the 178th position mutated into isoleucine (protein)
chain: B1 chain with N178I
B4: P313W: BS-YjiC (SEQ ID NO: 1) mutant with proline at the 313th position mutated into tryptophan (protein)
chain: B1 chain with P313W
B5: K125I: BS-YjiC (SEQ ID NO: 1) mutant with lysine mutated into isoleucine (K125I) (protein)
chain: B1 chain with K125I
B6: K125I/P313W: BS-YjiC (SEQ ID NO: 1) double mutant: lysine into isoleucine (K125I) and proline 313 into tryptophan (protein)
chain: B1 chain with K125I, P313W

Assay: Thermal stability: residual enzyme activity after incubation at 45° C.
Format: biochemical
Conditions: pure enzyme incubated in water bath at 45° C. for 90 min; enzyme without high-temperature treatment as blank control
Procedure: (§1) The detection methods involved in the following embodiments are as follows. • 1. Determination method of enzyme activity of glycosyltransferase BS-YjiC: 50 microliters (μL) of pure enzyme with a concentration of 1.5 milligrams per milliliter (mg/mL) is added to 950 μL of a reaction system containing 50 millimoles per liter (mM) Tris hydrochloride (Tris-HCl) (pH 8.0) buffer of 1 mM protopanaxadiol (PPD), 5 mM uridine diphosphate glucose (UDPG) and 8 mM magnesium chloride (MgCl2); reacted in a water bath at 35° C. for 30 minutes (min), then added the same volume of methanol to terminate the enzymatic reaction, so as to obtain a reacted product. The reacted product is centrifuged, then the supernatant is taken and filtered with a 0.22 micrometers (μm) filter to obtain a reaction solution, and the residual amount of PPD in the reaction solution is detected by high-performance liquid chromatography (HPLC). • 2. Definition of enzyme activity: the amount of enzyme required to convert 1 micromole (μmol) of ginsenoside PPD per minute at 35° C. and pH 8.0 is defined as one unit of enzyme activity U.
After the prepared pure enzymes are incubated in a water bath at 45° C. for 90 min, 1 mL is taken, and the residual enzyme activity of the remaining enzymes is determined according to the enzyme activity determination method of the glycosyltransferase BS-YjiC, and the percentage of residual enzyme activity is obtained by taking the enzyme activity of the pure enzyme solution without high-temperature treatment as a blank control.
The pure enzyme solutions containing wild-type glycosyltransferase BS-YjiC, K125I, N178I, P313W, K125I/N178I and K125I/P313W prepared in the step 2 of the embodiment 6 are taken, respectively, then put in a constant temperature water bath at 45° C., and sampled every 30 min. The residual enzyme activity of glycosyltransferase BS-YjiC is measured according to the enzyme activity determination method, and its thermal stability is compared.

| Molecule | Residual enzyme activity (%) |
| --- | --- |
| B1 | 84.6% |
| B2 | 98.3% and 98.25% |
| B3 | 87.42% |
| B4 | 89.48% |
| B5 | 91.05% |
| B6 | 95.1% and 95.43% |

Assay: Initial enzyme activity of pure enzyme solutions
Format: biochemical
Conditions: 35° C., pH 8.0, 1 mM PPD, 5 mM UDPG
Procedure: as §1
The pure enzyme solutions containing the wild-type glycosyltransferase BS-YjiC, K125I, N178I, P313W, K125I/N178I, and K125I/P313W prepared above are detected respectively, and the results are shown in Table 2.

| Molecule | Initial enzyme activity (%) |
| --- | --- |
| B1 | 100 |
| B2 | 106.47 |
| B3 | 98.76 |
| B4 | 96.53 |
| B5 | 103.15 |
| B6 | 105.13 |

Assay: Kinetic parameters with PPD as substrate (HPLC)
Format: biochemical
Conditions: 50-1000 μM PPD, 10 mM UDPG, 8 mM MgCl2, pH 8.0, 35° C., 30 min
Procedure: 0.22 μg of pure enzyme is added into 50 mM […] (pH 8.0) buffer containing 10 mM UDPG and 8 mM MgCl2, added 50, 100, 200, 300, 400, 500, 600, 800 and 1000 μM PPD respectively, reacted at 35° C. in water bath for 30 min, and then then an equal volume of methanol is added to terminate the enzymatic reaction. The reacted products are centrifuged, then the supernatants are taken and filtered by a 0.22 μm filter to obtain reaction solutions, and the remaining amount of PPD in the reaction solutions is detected by HPLC.

| Molecule | Kcat [s⁻¹] | Km [µM] | Vmax [U g^−1] |
| --- | --- | --- | --- |
| B1 | 0.96 ± 0.06 | 132 ± 32.1 | 8.32 ± 0.36 |
| B2 | 1.01 ± 0.05 | 117 ± 22.5 | 8.82 ± 0.45 |
| B3 | 1.01 ± 0.07 | 132 ± 33.8 | 8.75 ± 0.62 |
| B4 | 1.11 ± 0.08 | 136 ± 32 | 8.94 ± 0.60 |
| B5 | 0.99 ± 0.05 | 128 ± 22.4 | 8.60 ± 0.41 |
| B6 | 0.98 ± 0.05 | 121 ± 23.1 | 8.56 ± 0.44 |

Assay: Melting temperature Tm of the enzyme
Format: physicochemical
Conditions: not given

| Molecule | melting temperature Tm [°C] | increase of melting temperature Tm over natural glycosyltransferase BS-YjiC [°C] |
| --- | --- | --- |
| B1 | 47.30 | – |
| B2 | 54.51 | 7.21 |
| B6 | 53.07 | 5.77 |
